# In the DeepSol protein solubility set:
# Test: soluble on expression in E. coli; label from the status in PepcDB or PDB records
row,Sequence,soluble on expression in E. coli
1,MGSDKIHHHHHHMRIAVIGGGSSYTPELVKGLLDISEDVRIDEVIFYDIDEEKQKIVVDFVKRLVKDRFKVLISDTFEGAVVDAKYVIFQFRPGGLKGRENDEGIPLKYGLIGQETTGVGGFSAALRAFPIVEEYVDTVRKTSNATIVNFTNPSGHITEFVRNYLEYEKFIGLCNVPINFIREIAEMFSARLEDVFLKYYGLNHLSFIEKVFVKGEDVTEKVFENLKLKLSNIPDEDFPTWFYDSVRLIVNPYLRYYLMEKKMFKKISTHELRAREVMKIEKELFEKYRTAVEIPEELTKRGGSMYSTAAAHLIRDLETDEGKIHIVNTRNNGSIENLPDDYVLEIPCYVRSGRVHTLSQGKGDHFALSFIHAVKMYERLTIEAYLKRSKKLALKALLSHPLGPDVEDAKDLLEEILEANREYVKLG,not soluble
2,AQSVPYGISQIKAPALHSQGYTGSNVKVAVIDSGIDSSHPDLNVRGGASFVPSETNPYQDGSSHGTHVAGTIAALNNSIGVLGVSPSASLYAVKVLDSTGSGQYSWIINGIEWAISNNMDVINMSLGGPTGSTALKTVVDKAVSSGIVVAAAAGNEGSSGSTSTVGYPAKYPSTIAVGAVNSSNQRASFSSAGSELDVMAPGVSIQSTLPGGTYGAYNGTCMATPHVAGAAALILSKHPTWTNAQVRDRLESTATYLGNSFYYGKGLINVQAAAQ,soluble
3,SAAAIAASALPGAFGRLVSVCSRSILASQGSGSASLWSASRRFNSQSASYPQGYVPKTSLSSPPWQEVVLPDPVEETRHHAEVVKRVNELIATGQYGRLFAVVHFASHQWKVTAEDLILIENELDIKCGERIRLEKVLLVGADNFTLLGKPLLRKELVRVEATVIEKTESWPKINMKFRKRKNFRKKKIIVNPQTILRINTIEIAPRLL,soluble
4,MGQLIDGVWHDTWYDTKSTGGKFQRSASAFRNWLTADGAPGPTGTGGFIAEKDRYHLYVSLACPWAHRTLIMRKLKGLEPFISVSVVNPLMLENGWTFDDSFPGATGDTLYQNEFLYQLYLHADPHYSGRVTVPVLWDKKNHTIVSNESAEIIRMFNTAFDALGAKAGDYYPPALQTKIDELNGWIYDTVNNGVYKAGFATSQEAYDEAVAKVFESLARLEQILGQHRYLTGNQLTEADIRLWTTLVRFDPVYVTHFKCDKHRISDYLNLYGFLRDIYQMPGIAETVNFDHIRNHYFRSHKTINPTGIISIGPWQDLDEPHGRDVRFGLEHHHHHH,soluble
5,MKQVSRSALVSFSAEQMFNLVNDVAKYPEFLPGCSGSRIIESSGNGMVASVDVAKAGISKTFTTSNELIPGQAIMMNLVDGPFKTLRGGWIFTALDEQACKVELKLEFEFSSKMIEMAFGKIFNELTSNMVNAFTKRAKQVYECYEYLEHHHHHH,not soluble
6,TPDFTWKTSLNFSANKNKIVELHEELKEFVYGPTSFSSSYAMKLVKGGSIGDIYGKAFIRDEAGSIVYGTDGDYKGLPLVEGDGNTVKVGNANPDFMLGWNHSFSYKGFSLYFLLDWRYGGEVLSQTQAEMDLYGVSKATAQARDKGYVSLEGQQISDVKGFYKNVVGGRAGVTEYYMYDATNLRLREISLSYSFPRKWVQKTNCLKDLQLSFVARNLCFLYKKAPFDPDLVLSTGNDNQGIEVFGMPTTRSLGFTLTCEF,not soluble
7,GPGSMNFVPLYRSILKGIHTAKQHPYHLQDIRFILSYPLVKPVYYATKPNSELKQLEPLQGIDTPLLVRTCLEDLRRAFMSVPSKDMSVAQQFVYMRELGWLKCRLENIASESTDAILKEARVVASEVTDDDFLDDQIIVRQGRPNNKELQCVQTGNNGSEMGDCGYGVASAGAIGLRYEMFILQNVAPLPLVKEFLSSFSQNTEAAAAAATSNQKLQEFARRYVPRTVVCQNEDLTLTITVNAFDAALTRKSTEENNPFARVHRYFMIRFDLSPSDPLVLGVDVVNSYFLRLDAGSAELVEDIGYLHAADVWKLSQELRVKGSGSSTDSDDTKDNGCVDGSVSSKEHAAEGNVNCMDHNEHEHNPTSHFELSFINPSDGPTIMKGQLYYTLRTKSSASASKMNVGVISFGHILLFNDE,not soluble
8,MGSDKIHHHHHHSCGNKDKGTTVPEGNPSDREAMLKNVADNIVIPANAKFEIKLDNMIAKSDVFRNNPTVTTLSEYRIAWAEAYIEWQKIGIFDFGPAADVALNSYMNVYPANVSNINANILSGNANLEVFESYSAQGFPAIDYLINGSADTDDDIVALYVTGEDADKRKAYLLRLTNQMHAKFEAVNAAWKGDYRNTFVSSTGTGLNASTSVMVNGIVFYYERFIRSGKFGIPSGAMTGTPLNASVEAYYKKDIGKILAQTAQQAFVDYFNGKGVTTGIEGPSLKTYLNALDAKDATTKQPLSEIINNQFTVVDSKLNVLSDNLSNEVLTNKAAMVAVYNEMQKAVRMLKVDMTSALSVTITYTDNDGD,not soluble
9,MSLSNTGINCPFDCGLCPRHRSHTSLINIVLTNRCNLSCWYCFFYAREGEPIYEPTLEQIRMMLRNAKKEHPIGANAVQFTGGEPTLRDDLIEIIKIAKEEGYDHIQLNTDGIKLAFDPELVKKLREAGVNTLYLSYDGMTPQTNWKNHWEIPLIFENVRKAGGPGIVLVPTLIRNINDHEAGAIINFGLNHLDIVRGVNFQPISLVGRVPRKERQRFRITIAGAIKKIEEQTNGVIAKEDWYPIPIAGHIARFFEAFTGRKYYMTSHFACGAATYVFLDREEKKVIPIPRFIDVDGFVEFLVEKAEEIEKARFKSLAKLKAIGETIFVKFKQFYDEKNAPKGLDVLGLIKNAFVHGTYDALGKFHMNTLFIGMMHFMDEYNYDVERVERCVIHYAMPDGRIVPFCTFNVIPEIYRDKVQRQFSYSWEEWKKLHPDEGHHHHHH,not soluble
10,MRTPLSSVSPQLVQRFHELGFTPSSIRNFLGRPGFAAISRGEPASVLYAMRENEDSDFYPLIATFILHRPVAAEALHRVLGGSLTDQLTETGVLEIVDASKAYLTAKIDIRWLELEDDLFWVFSDTDASMIADHVPGKDHVLGVGAASLSLLATTPRSPVNSVLDLGTGSGVQALGQLRHARSVTATDVHPRALDFAEATFAGAHFDVEILDGSWFEPIKNRKFDRIVANPPFVVGPPEIEHVYRDSGLDLDGATETVVRGAVDHLHSNGTAHLLGSWVHKNGESVASRVAEWIPSHGVIAWFLQRDTVDPIQYVNTWLRDESIDPRSEIGFKRTLSWLDHFSRAKVEAVGFGYVAIQRVDDSIPSEVYFEELTHQVDDYLGDEIEEFFVRVDWLREKNRDGIAQSQFYLRPGVAKESVSVTDIDSGMGFTHLKYRITRTEGPRWSHEVDEHIVSVIAGLHPEGLTLEDVATLYAVSNGLDDESFVDAIIDPVVALVRHGILLPAEITKGW,soluble
11,MSLKKIANELGLSSTTVSRALNGYDDVAAETRERIIDAAKRLGYQPNSLARRLKMGRTDAIALAYPSRPRVLNNSTFLEMISWIGIELGKRGLDLLLIPDEPGEKYQSLIHLVETRRVDALIVAHTQPEDFRLQYLQKQNFPFLALGRSHLPKPYAWFDFDNHAGASLAVKRLLELGHQRIAFVSTDARISYVDQRLQGYVQTMSEAGLMPLAGYLQKADPTRPGGYLAASRLLALEVPPTAIITDCNMLGDGVASALDKAGLLGGEGISLIAYDGLPDDSLLDIAVTPIVQNTRTSVGKQIASMICDLLGGKDPKELQVLWQPEIGEGETEGHHHHHH,soluble
12,GSHMASKPIEDYGKGKGRIEPMYIPDNTFYNADDFLVPPHCKPYIDKILLPGGLVKDRVEKLAYDIHRTYFGEELHIICILKGSRGFFNLLIDYLATIQKYSGRESSVPPFFEHYVRLKSYQNDNSTGQLTVLSDDLSIFRDKHVLIVEDIVDTGFTLTEFGERLKAVGPKSMRIATLVEKRTDRSNSLKGDFVGFSIEDVWIVGCCYDFNEMFRDFDHVAVLSDAARKKFEK,soluble
13,MNEYFFPKLTAVEALAPYRLRTTWSTGEVLEVDVGDILRKIPDLAPILDPEAFARVHIAEWEGSVEWFDTEFGRDNVYAWAKEQAGEVSHEMFGDWMHRNNLSLTTAAEALGISRRMVSYYRTAHKIIPRTIWLACLGWEATRPETKTLPRTLPAAYAKGVSASLS,soluble
14,GMAEYEDRYWTSSDGLRLHFRAYEGDISRPPVLCLPGLTRNARDFEDLATRLAGDWRVLCPEMRGRGDSDYAKDPMTYQPMQYLQDLEALLAQEGIERFVAIGTSLGGLLTMLLAAANPARIAAAVLNDVGPEVSPEGLERIRGYVGQGRNFETWMHAARALQESSGDVYPDWDITQWLRYAKRIMVLGSSGRIAFDYDMKIAEPFEAPVGATPQVDMWPLFDALATRPLLVLRGETSDILSAQTAAKMASRPGVELVTLPRIGHAPTLDEPESIAAIGRLLERV,soluble
15,MSGLPQGRPTFGAAQNVSAVVAYDLSAHMLDVVAQAAEARQLKNITTRQGYAESLPFADNAFDIVISRYSAHHWHDVGAALREVNRILKPGGRLIVMDVMSPGHPVRDIWLQTVEALRDTSHVRNYASGEWLTLINEANLIVDNLITDKLPLEFSSWVARMRTPEALVDAIRIYQQSASTEVRTYFALQNDGFFTSDIIMVDAHKAALEHHHHHH,not soluble
16,MGSDKIHHHHHHMKGSTDLESRLPSAGAYGDRFASYFKLAKASVFKTGSLRTGEIAYTETSGYCHKPEPSVPVPPEDAFLVQTQLQDYPNHISWEDGRPGIVGTLRAGHTILRDLQRKPNAIIMGPHHTVHFYIPRATFNTVAEDLEARSISELAYVPAQPIDDDVIRGLIGTVRAAIKAPEETNRLFLDHLMMAAAVHLAQTYGGLKPRSLQHRGGLAPWQARLAIELLEGDLTGQLPLKDVAAACKLSVSYFSKAFCKTTGLAPHQWLLYRRVERAKSAMINEKTTLAEVALSCGFSDQSHFTRVFVRLVGTSPATWRRARNL,not soluble
17,MAATITDDIVATVLESIEEKSYEDEKEKAGMIKDEANQFFKDQVYDVAADLYSVAIEIHPTAVLYGNRAQAYLKKELYGSALEDADNAIAIDPSYVKGFYRRATANMALGRFKKALTDYQAVVKVCPNDKDARAKFDECSKIVRRQKFEAAISTDHDKKTVAETLDINAMAIEDSYDGPRLEDKITKEFVLQLIKTFKNQQKLHKKYAFKMLLEFYNYVKSLPTMVEITVPTGKKFTICGDVHGQFYDLCNIFEINGYPSETNPYLFNGDFVDRGSFSVETIFTMIGFKLLYPNHFFMSRGNHESDVMNKMYGFEGEVKAKYTQQMCDMFTETFCWLPLCHLINEKIFVCHGGLFKEDGVTLEDIRKTDRNRQPPDEGIMCDLLWSDPQPINGRSPSKRGVGCQFGPDVTSKWCETNGIEYVVRSHEVKPEGYEMHHNGQCFTVFSAPNYCDQMNNKGAFITITGDNLTPRFTPFDAVPHPKLPPMAYANSLFGFN,not soluble
18,MSLDLPYLSPTPFIKPVPSFKKYSMGFYPIVDSSHWLEMLLPLGIKCIQLRIKEASQERLEEEIKRSVHLANQYNAALFINDHWELAIHYGAAGVHLGQEDLEKADVDRINRSGLFLGISTHCYYEVARAHALNPSYVACGPIYETTSKIMPFQAQGIARLERWRKTLRYPLVAIGGITLKNLSDVLKTKIDGVSVISAITKASAPLVAAKQFLTQMNESHNEGHHHHHH,not soluble
19,MAHHHHHHMEVRRIAPIGRAAVLVMKNVSGNMWAGYSDGAIRVFDHVTQKVLRQSTQHTAAVYAMCAADGYVFTGGADGKVYQWMADDLHYSHMYYGHRNAVRSLTTYTDQKSRCRYVVSGSDDGTVKVWEATVAKTSGTPRKDGGCVSTLDGQGRCVLSILVLEDAAELWAGSEDSVIRVWDLSSMTVTTVITGHRAPVVTLLKVGDTVWSGSKDGAITITNRFSKDIVHQASQPPANRSAAPGGQRSSVSILPVTRTVVYEVWATAVDGSWQCWNFTVPEGVKSYVEEADVLKGGWCPSHSRPQRLSRVGQRSSRNVRSSSVNEYSENGLHSASARARRSDEKLRASVAQTRRTVAVLLAGSKVHQGLGAHNGNGFAHRNEAASVDIVDDDDTPLDIVAESIRNDHTAETQREVQLKQAALAKERRKSAKLRAALEMMCKDPVAIAEEGAKKVFRRTDSLVIAETLAMERQSGKLGSPTTEKLVGVSSQLELLKAQNKAMAAAVTESKKVPD,soluble
